Test results: patent publication US20240124575A1 (SIMCERE ZAIMING PHARMACEUTICAL, published 2024)
Each block holds one binder with its values, some of them ahead of it.

Tests used:
[1] = biological target: T1, human CD33-His (extracellular domain Asp 18-His 259) (human, UniProt P20138 18-259); experiment: competitive ELISA vs coated S006-NB146-3 2ug/mL; soluble 25ug/ml
T1 construct: range 18-259; bought protein; also called hCD33-his; human CD33 protein; not shown: His tag
Procedure: (§1) VHH antibodies and control antibodies with known epitopes were subjected to epitope classification with competitive ELISA. ELISA plates were coated with 2 μg/mL antibodies according to the method in Example 5.1; the human CD33-his protein was subjected to a gradient dilution from 30 μg/mL, and EC80 values (Tables 26-27) were calculated. ELISA plates were coated with 2 μg/mL antibodies; after 25 µg/mL of antibodies to be tested were added, a human CD33-his protein having an EC80 concentration corresponding to each of the antibodies to be tested was then added for incubation for 2 h. The plates were washed 5 times with PBS, then HRP-labeled anti-His antibodies (purchased from GenScript, Cat. No. A00612) were added for incubation for 1 h, and the plates were washed 5 times. A TMB substrate was added at 50 μL/well and incubated at room temperature for 10 min, then a stop solution (1.0 M HCl) was added at 50 μL/well. OD_{450 nm} values were read using an ELISA plate reader (Insight, purchased from PerkinElmer), and the competition rate between the antibodies was calculated according to the OD_{450 nm} values using a formula. The results are shown in FIGS. 12A-12B, the higher the value of the competition rate, the closer the epitopes to which two antibodies bind.

[2] = biological target: T1, human CD33-His (extracellular domain …); experiment: competitive ELISA vs coated S006-NB146-132 2ug/mL; soluble 25ug/ml
Procedure: as §1

[3] = biological target: T1, human CD33-His (extracellular domain …); experiment: competitive ELISA vs coated S006-NB146-181 3ug/mL; soluble 25ug/ml
monkey CD33-His protein = biological target: T2, monkey CD33-His protein (monkey); experiment: ELISA on coated monkey CD33-his
T2 construct: also called monkey CD33 protein

[4] = biological target: T1, human CD33-His (extracellular domain …); experiment: competitive ELISA vs coated C33B904 3ug/mL; soluble 25ug/ml
human CD33-his protein [5] = biological target: T3, human CD33-his protein (human, UniProt P20138 18-259); experiment: competition ELISA, coated human CD33-his, vs Biotin-C33B904 at EC80; antibody 1.95 nM
T3 construct: range 18-259; bought protein; also called hCD33-his; recombinant human CD33-his; not shown: His tag
T3 sequence (P20138 18-259 limits assumed): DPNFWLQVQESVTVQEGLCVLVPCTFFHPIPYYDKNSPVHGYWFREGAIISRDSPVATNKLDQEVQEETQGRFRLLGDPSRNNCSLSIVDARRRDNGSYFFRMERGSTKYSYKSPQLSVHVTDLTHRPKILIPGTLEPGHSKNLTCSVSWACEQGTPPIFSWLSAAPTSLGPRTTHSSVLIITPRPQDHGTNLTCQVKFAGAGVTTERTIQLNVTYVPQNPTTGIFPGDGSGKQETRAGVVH
Procedure: (§2) The plate was sealed with a plastic film and incubated at 4° C. overnight, washed twice with PBS the next day, and a blocking solution [PBS+2% (w/w) BSA] was added for blocking at room temperature for 2 h. The blocking solution was discarded, and VHH-Fc antibody or negative control antibody serially diluted from 100 nM was added at 50 μL/well. After incubation at 37° C. for 2 h, the plate was washed 3 times with PBS. A secondary antibody labeled with HRP (horseradish peroxidase) (purchased from Sigma, Cat. No. A0170) was added. After incubation for 1 h at 37° C., the plate was washed 5 times with PBS. A TMB substrate was added at 50 μL/well. After incubation at room temperature for 10 min, a stop solution (1.0 N HCl) was added at 50 μL/well. The OD450 nm values were read on an ELISA plate reader (Multimode Plate Reader, EnSight, purchased from Perkin Elmer). The assay results for the binding of the VHH-Fc to hCD33-his by ELISA are shown in FIGS. 7A and 7B and Tables 11 and 12. […] The IgG control was hIgG1, and the data in the table are OD450 nm values.
(§3) ELISA plates were coated with 2 μg/mL human CD33-his protein according to the method in Example 5.1; the Biotin-C331B904 antibody was subjected to a gradient dilution from 15 μg/mL, and EC80 values (0.18 μg/mL) were calculated. […] OD_{450 nm} values were read using an ELISA plate reader (Insight, purchased from PerkinElmer). […]

human CD33-his protein [6] = biological target: T3, human CD33-his protein; experiment: competition ELISA, coated human CD33-his, vs Biotin-C33B904 at EC80; antibody 0 nM (no competitor)
Procedure: (§4) ELISA plates were coated with 2 μg/mL human CD33-his protein according to the method in Example 5.1; the Biotin-C331B904 antibody was subjected to a gradient dilution from 15 μg/mL, and EC80 values (0.18 μg/mL) were calculated. ELISA plates were coated with 2 μg/mL human CD33-his protein; starting from 40 μg/mL, the VHH antibodies to be tested were diluted in a 1:2 dilution ratio to obtain seven concentrations and added to the ELISA plates, and then Biotin-C331904 antibodies with the EC80 concentrations were added for incubation for 2 h. The plates were washed 5 times with PBS and then […] (purchased from Sigma, Cat. No. S2438) were added for incubation for 1 h, and the plates were washed 5 times. A TMB substrate was added at 50 μL/well and incubated at room temperature for 10 min, then a stop solution (1.0 M HCl) was added at 50 μL/well. OD_{450 nm} values were read using an ELISA plate reader (Insight, purchased from PerkinElmer). Then, analysis was performed by software (GraphPad Prism8), and data were fitted for curve plotting. The results are shown in FIGS. 13A-13B and Tables 28 and 29.

human CD33-his protein [7] = biological target: T3, human CD33-his protein; experiment: competition ELISA, coated human CD33-his, vs Biotin-C33B904 at EC80; antibody 1.95 nM; remark: listed apart in the source
Procedure: as §4

human CD33-his protein [8] = biological target: T3, human CD33-his protein; experiment: competition ELISA, coated human CD33-his, vs Biotin-C33B904 at EC80; antibody 15.63 nM
Procedure: as §2, §3

T1 sequence (P20138 18-259 limits assumed): as above

inhibition rate [1]: -9% | inhibition rate [2]: 98% | inhibition rate [3]: 100% | EC50 (read off the curve) (monkey CD33-His protein): ~0.2 nM | inhibition rate [4]: 86%
B1: C33B904 hIgG1 (antibody, V domains shown)
VH: EVQLVESGGGLVQPGRSLRLSCAASGFTFDDYAMHWVRQAPGKGLEWVSGIGWSGGSIVYADSVKGRFTISRDNAKNSLYLQMNSLRAEDTALYYCAKDSPYGDFFDYWGQGTLVTVSS
VL: DIVMTQSPDSLAVSLGERATINCKSSQTVFYSSNNKNYLAWYQQKPGQPPKLLISWASTRKSGVPDRFSGSGSGTDFTLTVSSLQAEDVAVYYCQHYYSTPYTFGQGTKLEIKR
notes: intact human IgG1; variable regions from US20190382481A1; also called C33B3904; C331B904

OD450 (Biotin-C33B904 signal) (human CD33-his protein [5]): 2.43 | OD450 (Biotin-C33B904 signal) (human CD33-his protein [6]): 2.35 | OD450 (Biotin-C33B904 signal) (human CD33-his protein [7]): 2.02 | OD450 (Biotin-C33B904 signal) (human CD33-his protein [8]): 0.88
B2: C33B904 (antibody, human IgG1, kappa, V domains shown)
VH: B1 VH
VL: B1 VL
notes: control antibody, intact human IgG1 form; variable regions from US20190382481A1; also called C33B904 hIgG1; C331B904
